The source of these data is patent publication US20210061859A1, “NTCP Inhibitor” (The University of Tokyo, priority 2018, published 2021).

T1: human NTCP (Homo sapiens, UniProt Q14973)
T1 construct: made in house; host or cells: wheat germ cell-free protein synthesis system
T1 sequence (Q14973 1-349): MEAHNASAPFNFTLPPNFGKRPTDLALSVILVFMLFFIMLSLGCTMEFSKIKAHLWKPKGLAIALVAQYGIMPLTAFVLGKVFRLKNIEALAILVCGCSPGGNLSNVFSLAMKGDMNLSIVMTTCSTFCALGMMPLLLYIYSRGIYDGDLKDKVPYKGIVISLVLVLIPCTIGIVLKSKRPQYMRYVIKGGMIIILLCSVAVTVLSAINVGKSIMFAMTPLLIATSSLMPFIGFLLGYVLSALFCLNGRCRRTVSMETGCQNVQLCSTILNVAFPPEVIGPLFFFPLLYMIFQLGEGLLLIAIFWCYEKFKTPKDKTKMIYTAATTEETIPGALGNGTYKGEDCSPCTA

T2: His-tagged recombinant NTCP protein (human sodium taurocholate cotransporting polypeptide) (human), Q14973
T2 chain: T1 sequence (Q14973 1-349)

In general, Kd refers to the constant that tells how readily two partners part at equilibrium.

Where a SMILES comes first, the peptide text is derived from it. Bridges are numbered along the chain shown (N, C = ends). [ ]: non-standard residue; d: D form. NMeS = CN[C@@H](CO)C(=O)O; Sar = CNCC(=O)O

For one assay, the target named is T1, human NTCP. The experiment in a line: Surface plasmon resonance binding to immobilized recombinant NTCP. The note with it: Kd, single-cycle kinetics, 1:1 binding model, NTCP immobilized on NTA-Ni2+. How it is done: FIG. 7 is a diagram showing the NTCP association constant of a peptide identified by first RaPID screening. A single-cycle reaction kinetics experiment was conducted using NTCP immobilized on surface (NTA-Ni^2+) involving varying concentrations of a cyclic peptide analyte. In each case, as shown in the drawing, the peptide was tested with 4-fold serial dilutions starting from the highest concentration of 200 or 1000 nM. A dissociation constant (KD) was determined using a 1:1 binding model.
FIG. 9 is a diagram showing the NTCP association constant of a peptide identified by focused library RaPID screening. A single-cycle association constant experiment was conducted using NTCP immobilized on surface (NTA-Ni^2+) involving varying concentrations of a cyclic peptide analyte. In each case, as shown in the drawing, the peptide was tested with 4-fold serial dilutions starting from the highest concentration of 200 or 1000 nM. A dissociation constant (KD) was determined using a 1:1 binding model.
The association constant of each peptide for human NTCP was measured using a Biacore T200 apparatus (GE Healthcare Japan Corp.). The running buffer solution used was HBS-P+ (10 mM HEPES, 150 mM NaCl, and 0.05 vol % surfactant P20, pH 7.4) containing 0.1 vol % DMSO and 1 mM β-dodecyl-maltoside. 100 nM recombinant NTCP was immobilized on a NTA chip treated with Ni^2+ according to the manufacturer's instructions (baseline response: 1000 to 3000 refraction units). Peptides were injected as analytes at a flow rate of 60 μL/min, and association constants were modelled using a 1:1 binding model.
(In general: SPR reads the build-up and loss of mass on a sensor chip optically.)
`CC[C@H](C)[C@@H]1NC(=O)[C@H](Cc2ccc(O)cc2)NC(=O)[C@H](CC(C)C)NC(=O)[C@H](C)NC(=O)[C@H]([C@@H](C)O)NC(=O)[C@H](CC(N)=O)NC(=O)[C@H](Cc2c[nH]c3ccccc23)NC(=O)[C@H](CCC(=O)O)NC(=O)[C@@H]2CCCN2C(=O)[C@H](Cc2ccc(O)cc2)NC(=O)[C@H](Cc2c[nH]c3ccccc23)NC(=O)[C@H](Cc2ccc(O)cc2)NC(=O)[C@H](Cc2c[nH]cn2)NC(=O)[C@@H](Cc2ccc(O)cc2)NC(=O)CSC[C@@H](C(=O)NCC(N)=O)NC(=O)[C@@H]2CCCN2C(=O)[C@H](Cc2c[nH]c3ccccc23)NC1=O` [D3] ({CH2CO}-[dY]HYWYPEWNTALYIWPCG-NH2; thioether N-17): the Kd was 50 nM.

Turning to `CC(C)C[C@@H]1NC(=O)[C@H](Cc2ccc(O)cc2)NC(=O)CSC[C@@H](C(=O)NCC(N)=O)NC(=O)[C@H](CC(C)C)NC(=O)[C@H](CO)NC(=O)[C@H]([C@@H](C)O)NC(=O)[C@H](C(C)C)NC(=O)[C@H]([C@@H](C)O)NC(=O)[C@H](Cc2c[nH]c3ccccc23)NC(=O)[C@H](CC(N)=O)NC(=O)[C@H](CO)NC(=O)[C@H](Cc2c[nH]cn2)NC(=O)[C@H](Cc2c[nH]c3ccccc23)NC(=O)[C@H]([C@@H](C)O)NC(=O)[C@H](Cc2c[nH]c3ccccc23)NC(=O)[C@H]([C@@H](C)O)NC(=O)[C@H](Cc2ccc(O)cc2)NC1=O` [L1] ({CH2CO}-YLYTWTWHSNWTVTSLCG-NH2; thioether N-17), the Kd amounted to 21 nM.

For `CC(C)C[C@@H]1NC(=O)[C@H](CC(=O)O)NC(=O)[C@H](CC(C)C)NC(=O)[C@H](Cc2ccccc2)NC(=O)[C@H](Cc2c[nH]c3ccccc23)NC(=O)[C@H](CO)NC(=O)[C@H](CCCNC(=N)N)NC(=O)[C@H](CCC(=O)O)NC(=O)[C@H](C)NC(=O)[C@H](Cc2c[nH]c3ccccc23)NC(=O)[C@H](CC(C)C)NC(=O)[C@H](CC(C)C)NC(=O)[C@H](Cc2c[nH]c3ccccc23)NC(=O)[C@H](C(C)C)NC(=O)[C@H](Cc2ccc(O)cc2)NC(=O)CSC[C@@H](C(=O)NCC(N)=O)NC(=O)CNC1=O` [L2] ({CH2CO}-YVWLLWAERSWFLDLGCG-NH2; thioether N-17), the Kd worked out at 374 nM.

In the case of `CC[C@H](C)[C@@H]1NC(=O)[C@H](Cc2c[nH]c3ccccc23)NC(=O)[C@H](CC(C)C)NC(=O)[C@H](Cc2ccc(O)cc2)NC(=O)CSC[C@@H](C(=O)NCC(N)=O)NC(=O)CNC(=O)[C@H](CC(C)C)NC(=O)[C@H](CC(=O)O)NC(=O)[C@H](Cc2ccccc2)NC(=O)[C@H]([C@@H](C)O)NC(=O)[C@H](Cc2ccc(O)cc2)NC(=O)[C@H](Cc2c[nH]c3ccccc23)NC(=O)[C@H](CC(N)=O)NC(=O)[C@H](CCC(N)=O)NC(=O)[C@H](Cc2c[nH]cn2)NC(=O)[C@H](Cc2ccccc2)NC1=O` [L3] ({CH2CO}-YLWIFHQNWYTFDLGCG-NH2; thioether N-16), the Kd is 13 nM.

Consider `CC(C)C[C@@H]1NC(=O)[C@H](Cc2ccc(O)cc2)NC(=O)CSC[C@@H](C(=O)NCC(N)=O)NC(=O)[C@H](C(C)C)NC(=O)[C@H](CC(N)=O)NC(=O)[C@H](Cc2ccc(O)cc2)NC(=O)[C@H](C)NC(=O)[C@H](Cc2ccc(O)cc2)NC(=O)[C@H](CO)NC(=O)[C@H]([C@@H](C)O)NC(=O)[C@H](CC(N)=O)NC(=O)[C@@H]2CCCN2C(=O)[C@H](Cc2c[nH]c3ccccc23)NC(=O)[C@H]([C@@H](C)O)NC(=O)[C@H](Cc2c[nH]c3ccccc23)NC(=O)[C@H](CC(C)C)NC(=O)[C@H](Cc2ccc(O)cc2)NC1=O` [L4] ({CH2CO}-YLYLWTWPNTSYAYNVCG-NH2; thioether N-17), for which the Kd was found to be 30 nM.

For `CC[C@H](C)[C@@H]1NC(=O)[C@H](Cc2ccc(O)cc2)NC(=O)[C@H](Cc2ccc(O)cc2)NC(=O)[C@H](Cc2c[nH]cn2)NC(=O)[C@H](Cc2c[nH]cn2)NC(=O)[C@H]([C@@H](C)O)NC(=O)[C@H](CC(N)=O)NC(=O)[C@H](Cc2c[nH]c3ccccc23)NC(=O)[C@H]([C@@H](C)O)NC(=O)[C@H](Cc2ccc(O)cc2)NC(=O)CSC[C@@H](C(=O)NCC(N)=O)NC(=O)[C@H](CC(N)=O)NC(=O)[C@H](CC(C)C)NC(=O)[C@H](Cc2c[nH]c3ccccc23)NC1=O` [L5] ({CH2CO}-YTWNTHHYYIWLNCG-NH2; thioether N-14), the Kd stood at 4 nM.

For `CC[C@H](C)[C@@H]1NC(=O)[C@H](Cc2c[nH]cn2)NC(=O)[C@H]([C@@H](C)CC)NC(=O)[C@H](CO)N(C)C(=O)[C@@H]2CCCN2C(=O)[C@H](Cc2ccc(O)cc2)NC(=O)[C@H](Cc2ccc(O)cc2)NC(=O)[C@H]([C@@H](C)CC)NC(=O)[C@H](Cc2ccc(O)cc2)NC(=O)[C@H](CC(N)=O)NC(=O)[C@@H](Cc2ccc(O)cc2)NC(=O)CSC[C@@H](C(=O)N[C@H](C(N)=O)[C@@H](C)O)NC(=O)[C@H](CC(C)C)NC(=O)[C@H](Cc2ccc(O)cc2)NC(=O)[C@H](Cc2ccccc2)NC1=O` [PD1] ({CH2CO}-[dY]NYIYYP[NMeS]IHIFYLCT-NH2; thioether N-15), the Kd was determined as 149 nM.

For the molecule `CC[C@H](C)[C@@H]1NC(=O)[C@H](Cc2c[nH]c3ccccc23)NC(=O)[C@H]([C@@H](C)O)NC(=O)[C@@H](Cc2ccc(O)cc2)NC(=O)CSC[C@@H](C(=O)N[C@H](C(N)=O)[C@@H](C)O)NC(=O)[C@@H]2CCCN2C(=O)[C@H](Cc2ccccc2)NC(=O)[C@H](Cc2ccc(O)cc2)NC(=O)[C@H](C(C)C)NC(=O)[C@H](C(C)C)NC(=O)[C@H](Cc2ccc(O)cc2)NC(=O)[C@H](CC(C)C)NC(=O)CN(C)C(=O)CN(C)C(=O)[C@H](Cc2c[nH]c3ccccc23)NC1=O` [WD2] ({CH2CO}-[dY]TWIW[Sar][Sar]LYVVYFPCT-NH2; thioether N-15), the Kd amounted to 14 nM.

A further assay has as its target T2, His-tagged recombinant NTCP protein …. The assay is described as follows: SPR (Biacore T200), single-cycle kinetics, His-NTCP on Ni2+-NTA chip, peptide as analyte, 1:1 model.
Conditions: not given
Regarding YNYIYYPSIHIFYLCT (modifications not checked) [PD1], the Kd is 149 nM.

YVWLLWAERSWFLDLGCG (modifications not checked) [NTCP-L2]: the Kd was found to be 374 nM.

Consider YTFTYAQIWIWYYGCT (modifications not checked) [WD4], for which the Kd was 11 nM.

On to YLWIFHQNWYTFDLGCG (modifications not checked) [NTCP-L3], for which the Kd was 13 nM.

Consider YLYLWTWPNTSYAYNVCG (modifications not checked) [NTCP-L4], for which the Kd was found to be 30 nM.

As for YLYTWTWHSNWTVTSLCG (modifications not checked) [NTCP-L1], the Kd was 21 nM.

In the case of YALIWTWSQYYQYYSCT (modifications not checked) [WD3], the Kd was determined as 15 nM.

As to YTWTWQNSFIWIYCT (modifications not checked) [WL5], the Kd was 10 nM.

As to YHYWYPEWNTALYIWPCG (modifications not checked) [NTCP-D3], the Kd is 50 nM.

Regarding YTWTWNSAFLYVYCT (modifications not checked) [WL6], the Kd came to 36 nM.

With YTWNTHHYYIWLNCG (modifications not checked) [NTCP-L5], the Kd stood at 4 nM.

Regarding YTWTWHSAYLYVFCT (modifications not checked) [WL3], the dissociation constant Kd was found to be 57 nM.

For YTYKYSGIWIWIWCT (modifications not checked) [WL1], the Kd came out at 360 nM.

Turning to YWWAINPHIHVFTWPCG (modifications not checked) [NTCP-D2], the Kd was 14 nM.

As for YTWIWGGLYVVYFPCT (modifications not checked) [WD2], the Kd came out at 14 nM.

Turning to YILVYPELHLFLLYSCG (modifications not checked) [NTCP-D4], the Kd is 2270 nM.
